In patent US20250084179A1 (Xencor, published 2025):

Legend:
human CD28 [1] = target: T1, human CD28 (human, UniProt P10747 19-152, limits assumed); test: Octet, monovalent KD; format of this comparator not stated
T1 construct: also called Cluster of Differentiation 28; Tp44

human CD28 [2] = target: T1, human CD28; test: not stated; value printed beside the name in the 'CD28 Mutations' cell, apparently a reference affinity of this domain
human CD28 [3] = target: T1, human CD28; test: Octet, monovalent KD of Fab
human CD28 [4] = target: T1, human CD28; test: another set of experiments; monovalent Fab, method not restated (Octet for the FIG. 35 data)
TROP2 [5] = target: T2, TROP2 (UniProt P09758 27-274, limits assumed); test: not stated; bivalent format
T2 construct: also called tumor-associated calcium signal transducer 2; TACSTD2
T2 sequence (looked up): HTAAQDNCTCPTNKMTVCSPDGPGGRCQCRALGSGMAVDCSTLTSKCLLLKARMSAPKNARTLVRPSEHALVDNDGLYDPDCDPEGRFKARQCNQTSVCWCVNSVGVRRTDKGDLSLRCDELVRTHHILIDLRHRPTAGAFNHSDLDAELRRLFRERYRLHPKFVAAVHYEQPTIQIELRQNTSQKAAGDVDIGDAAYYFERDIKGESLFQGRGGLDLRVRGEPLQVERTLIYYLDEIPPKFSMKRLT

Cyno TROP2 = target: T3, Cyno TROP2 (Macaca fascicularis, UniProt A0A2K5UE71); test: not stated; bivalent format
T3 construct: Construct used in the measurement is not described; also called cynomolgus TROP2
T3 sequence (antigen): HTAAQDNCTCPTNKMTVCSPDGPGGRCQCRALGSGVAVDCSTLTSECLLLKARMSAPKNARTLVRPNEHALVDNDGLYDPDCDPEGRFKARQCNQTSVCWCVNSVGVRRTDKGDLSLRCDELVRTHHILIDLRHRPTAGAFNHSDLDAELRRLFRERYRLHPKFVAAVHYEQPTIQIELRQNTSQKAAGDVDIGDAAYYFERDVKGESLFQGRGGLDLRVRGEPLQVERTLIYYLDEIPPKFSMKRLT

TROP2 [6] = target: T2, TROP2; test: monovalent KD; method not stated
TROP2 [7] = target: T2, TROP2; test: KD; method and format not stated

B1: 1A7_H1.14_L1.71 (antibody, V domains shown)
VH: EVQLLESGGGLVQPGGSLRLSCAASGFTFSSYYMSWVRQAPGKGLEWVSTISESGDSTYYADSVKGRFTISRDNSKNTLYLQMNSLRAEDTAVYYCAKSGPGLRQVGFDYWGQGTLVTVSS
VL: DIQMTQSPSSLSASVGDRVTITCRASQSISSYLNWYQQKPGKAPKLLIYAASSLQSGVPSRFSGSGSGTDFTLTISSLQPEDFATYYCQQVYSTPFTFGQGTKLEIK
notes: also called 1A7[CD28]_H1.14_L1.71
Kd (human CD28 [1]): 38 nM | Kd (human CD28 [2]): 37 nM

B2: 1A7_H1.114_IGKV1-39_L1 (Fab, V domains shown)
VH: EVQLLESGGGLVQPGGSLRLSCAASGFTFSSYYMSWVRQAPGKGLEWVSTIAERGDSTYYADSVKGRFTISRDNSKNTLYLQMNSLRAEDTAVYYCAKSGPGLRQVGFDYWGQGTLVTVSS
VL: not shown
notes: also called 1A7[CD28]_H1.114 paired with IGKV1-39 germline VL (1F11-1A3.315 L1)
Kd (human CD28 [3]): 44 nM

B3: 1A7_H1.118_IGKV1-39_L1 (Fab, V domains shown)
VH: EVQLLESGGGLVQPGGSLRLSCAASGFTFSSYYMSWVRQAPGKGLEWVSTIAESGDPTYYADSVKGRFTISRDNSKNTLYLQMNSLRAEDTAVYYCAKSGPGLRQVGFDYWGQGTLVTVSS
VL: not shown
notes: also called 1A7[CD28]_H1.118 paired with IGKV1-39 germline VL
Kd (human CD28 [4]): ~400 nM | Kd (human CD28 [3]): 63 nM

B4: 1A7_H1.125_IGKV1-39_L1 (Fab, V domains shown)
VH: EVQLLESGGGLVQPGGSLRLSCAASGFTFSSYYMSWVRQAPGKGLEWVSTISEHGLSTYYADSVKGRFTISRDNSKNTLYLQMNSLRAEDTAVYYCAKSGPGLRQVGFDYWGQGTLVTVSS
VL: not shown
notes: also called 1A7[CD28]_H1.125 paired with IGKV1-39 germline VL (1F11-1A3.315 L1)
Kd (human CD28 [3]): 28 nM

B5: 1A7_H1.129_IGKV1-39_L1 (Fab, V domains shown)
VH: EVQLLESGGGLVQPGGSLRLSCAASGFTFSSYYMSWVRQAPGKGLEWVSTISERADSTYYADSVKGRFTISRDNSKNTLYLQMNSLRAEDTAVYYCAKSGPGLRQVGFDYWGQGTLVTVSS
VL: not shown
notes: Constant domains not specified for the assay; also called 1A7[CD28]_H1.129 paired with IGKV1-39 germline VL; 1F11-1A3.315 L1 as common light chain
Kd (human CD28 [4]): 60 to 70 nM | Kd (human CD28 [3]): 21 nM

B6: 1A7_H1.130_IGKV1-39_L1 (Fab, V domains shown)
VH: EVQLLESGGGLVQPGGSLRLSCAASGFTFSSYYMSWVRQAPGKGLEWVSTISERGDVTYYADSVKGRFTISRDNSKNTLYLQMNSLRAEDTAVYYCAKSGPGLRQVGFDYWGQGTLVTVSS
VL: not shown
notes: also called 1A7[CD28]_H1.130 paired with IGKV1-39 germline VL (1F11-1A3.315 L1)
Kd (human CD28 [3]): 46 nM

B7: 1F11-1A3.315_H1L1 (antibody, V domains shown)
VH: QVQLVQSGAEVKKPGASVKVSCKASGYTFTRYYMHWVRQAPGQGLEWMGIINPGGGSTGYAQKFQGRVTMTRDTSTSTVYMELSSLRSEDTAVYYCARDDVVAADVFDYWGQGTLVTVSS
VL: not shown
notes: also called 1F11-1A3.315[Trop2]_H1 with L1; copies: 1 + 1
Kd (TROP2 [5]): 6.5 nM | koff (TROP2 [5]): 0.0012 s⁻¹ | kon (TROP2 [5]): 190000 M⁻¹ s⁻¹ | Kd (Cyno TROP2): 9.9 nM | koff (Cyno TROP2): 0.0021 s⁻¹ | kon (Cyno TROP2): 210000 M⁻¹ s⁻¹ | Kd (TROP2 [6]): 13 nM

B8: 1F11-1A3.315_H1.10_L1 (antibody, V domains shown)
VH: QVQLVQSGAEVKKPGASVKVSCKASGYTFTRYYMHWVRQAPGQGLEWMGIIEPGGGSTTYAQKFQGRVTMTRDTSTSTVYMELSSLRSEDTAVYYCARDDVVAADVFDYWGQGTLVTVSS
VL: not shown
notes: also called 1F11-1A3.315[Trop2]_H1.10 with L1
Kd (TROP2 [5]): 0.98 nM | koff (TROP2 [5]): 0.00033 s⁻¹ | kon (TROP2 [5]): 330000 M⁻¹ s⁻¹ | Kd (Cyno TROP2): 1.5 nM | koff (Cyno TROP2): 0.00053 s⁻¹ | kon (Cyno TROP2): 340000 M⁻¹ s⁻¹ | Kd (TROP2 [6]): 5 nM

B9: 1F11-1A3.315_H1.19_L1 (antibody, V domains shown)
VH: QVQLVQSGAEVKKPGASVKVSCKASGYTLTRYYMHWVRQAPGQGLEWMGIIEPGGGSTTYAQKFQGRVTMTRDTSTSTVYMELSSLRSEDTAVYYCARDDVVKADVFDYWGQGTLVTVSS
VL: not shown
notes: also called 1F11-1A3.315[Trop2]_H1.19 with L1
Kd (TROP2 [5]): 0.25 nM | koff (TROP2 [5]): 0.0001 s⁻¹ | kon (TROP2 [5]): 410000 M⁻¹ s⁻¹ | Kd (Cyno TROP2): 0.46 nM | koff (Cyno TROP2): 0.0002 s⁻¹ | kon (Cyno TROP2): 450000 M⁻¹ s⁻¹ | Kd (TROP2 [6]): 2 nM

B10: 1C9A4.313 (antibody, V domains shown)
VH: QVQLVQSGAEVKKPGSSVKVSCKASGGTFSNYAIGWVRQAPGQGLEWMGGIVPIFGVADYAQKFQGRVTITADESTSTAYMELSSLRSEDTAVYYCAREGWYLLNYFDYWGQGTLVTVSS
VL: not shown
notes: Phage-derived TROP2 clone; also called 1C9A4.313[TROP2]_H1 with L1
Kd (TROP2 [7]): 40 nM

B11: 1B11A3.316 (antibody, V domains shown)
VH: QVQLVQSGAEVKKPGASVKVSCKASGYTFTRYYMHWVRQAPGQGLEWMGIINPGGGSTIYAQKFQGRVTMTRDTSTSTVYMELSSLRSEDTAVYYCARDDVIVDAFDYWGQGTLVTVSS
VL: not shown
notes: Phage-derived TROP2 clone; also called 1B11A3.316[TROP2]_H1 with L1
Kd (TROP2 [7]): 54 nM

B12: 1B2A4.312 (antibody, V domains shown)
VH: QVQLVQSGAEVKKPGASVKVSCKASGYTFTGSYMHWVRQAPGQGLEWMGIINPSGESTVYAQKFQGRVTMTRDTSTSTVYMELSSLRSEDTAVYYCARDPGGSWPFSYALDYWGQGTLVTVSS
VL: not shown
notes: Phage-derived TROP2 clone; also called 1B2A4.312[TROP2]_H1 with L1
Kd (TROP2 [7]): 64 nM

B13: 1A3A4.312 (antibody, V domains shown)
VH: QVQLVQSGAEVKKPGASVKVSCKASGYTFTRHYMHWVRQAPGQGLEWMGIINPGGGATSYAQKFQGRVTMTRDTSTSTVYMELSSLRSEDTAVYYCAREDYAGKWWGMDYWGQGTLVTVSS
VL: not shown
notes: Phage-derived TROP2 clone; also called 1A3A4.312[TROP2]_H1 with L1
Kd (TROP2 [7]): 80 nM

B14: 2C5A3.316 (antibody, V domains shown)
VH: QVQLVQSGAEVKKPGSSVKVSCKASGGTFTTSGISWVRQAPGQGLEWMGGIVPLLGTVNYAQKFQGRVTITADESTSTAYMELSSLRSEDTAVYYCARSGAATDARYGLDYWGQGTLVTVSS
VL: not shown
notes: Phage-derived TROP2 clone; also called 2C5A3.316[TROP2]_H1 with L1
Kd (TROP2 [7]): 345 nM
